Assay results reported in patent US20170319675A1 (IMMATICS BIOTECHNOLOGIES, published 2017).

Biological target: T1, HLA-A*0201 (human)
T1 construct: also called peptide-receptive MHC molecules; MHC class I
Assay: UV-ligand exchange; anti-b2m ELISA
Source text: Candidate peptides for the vaccines according to the present invention were further tested for immunogenicity by in vitro priming assays. The individual peptide-MHC complexes required for these assays were produced by UV-ligand exchange, where a UV-sensitive peptide is cleaved upon UV-irradiation, and exchanged with the peptide of interest as analyzed. Only peptide candidates that can effectively bind and stabilize the peptide-receptive MHC molecules prevent dissociation of the MHC complexes. To determine the yield of the exchange reaction, an ELISA was performed based on the detection of the light chain (β2m) of stabilized MHC complexes.
Peptide-MHC monomers of the UV-exchange reaction were diluted 100 fold in blocking buffer. Samples were incubated for 1 h at 37° C., washed four times, incubated with 2 μg/ml HRP conjugated anti-β2m for 1 h at 37° C., washed again and detected with TMB solution that is stopped with […]. Absorption was measured at 450 nm.

B1: SAMSN1-001 (peptide)
peptide: RLLAAENFL
With B1 the “Average exchange yield in %” value was 47%.
